Source: patent US6403765B1, “Truncated Apaf-1 and methods of use thereof” (Thomas Jefferson University, priority 1998, dated 2002)
Changes are numbered by the printed parent chain. Names and notes keep the numbering of the source. Each block holds one molecule with its values, some of them ahead of it.

Tests used:
T7-tagged Bcl-xL = molecular target: T1, T7-tagged Bcl-xL (Homo sapiens, UniProt Q07817); assay: Co-immunoprecipitation of Flag-tagged Apaf-1 variants or procaspase-9 with T7-tagged Bcl-xL in 293 cells; assay type: binding; details: anti-Flag immunoprecipitation, anti-T7 blot, 36 hours, FIG. 16
T1 construct: expressed in transfected cells; host or cells: 293 cells
Description: In vivo interaction experiments between Apaf-1 variants and Bcl-xL were performed. To analyze the ability of Apaf-1 to interact with Bcl-xL, 293 cells were co-transfected with constructs encoding T7-tagged Bcl-xL and constructs encoding Flag-tagged Apaf-97 (FIG. 16, lane 1), Apaf-1 (FIG. 16, lane 2), Apaf-530 (FIG. 16, lane 3) Apaf-530ΔCARD (FIG. 16, lane 4), or procaspase-9 C287A (FIG. 16, lane 5). After 36 hours, extracts were prepared and immunoprecipitated with a monoclonal antibody to the Flag epitope. The immunoprecipitates (FIG. 16, upper panel) were analyzed by SDS-PAGE and immunoblotted with a horseradish peroxidase-conjugated T7 antibody. The corresponding cellular extracts were also analyzed by SDS-PAGE and immunoblotted with a horseradish peroxides-conjugated T7 antibody (FIG. 16, middle panel) or an anti-Flag antibody (FIG. 16, lower panel).

procaspase-9 = molecular target: T2, procaspase-9 (Homo sapiens, UniProt P55211); assay: In vitro caspase 9 activation assay: recombinant Apaf-1 variants incubated with in vitro translated procaspase-9; assay type: biochemical; details: bacterial lysates with truncated Apaf-1 variants, FIG. 2B
T2 construct: schematic representation of full length procaspase-9; made in house; host or cells: coupled in vitro transcription/translation in rabbit reticulocyte lysate (TNT Kit, Promega)
T2 sequence (P55211 1-416): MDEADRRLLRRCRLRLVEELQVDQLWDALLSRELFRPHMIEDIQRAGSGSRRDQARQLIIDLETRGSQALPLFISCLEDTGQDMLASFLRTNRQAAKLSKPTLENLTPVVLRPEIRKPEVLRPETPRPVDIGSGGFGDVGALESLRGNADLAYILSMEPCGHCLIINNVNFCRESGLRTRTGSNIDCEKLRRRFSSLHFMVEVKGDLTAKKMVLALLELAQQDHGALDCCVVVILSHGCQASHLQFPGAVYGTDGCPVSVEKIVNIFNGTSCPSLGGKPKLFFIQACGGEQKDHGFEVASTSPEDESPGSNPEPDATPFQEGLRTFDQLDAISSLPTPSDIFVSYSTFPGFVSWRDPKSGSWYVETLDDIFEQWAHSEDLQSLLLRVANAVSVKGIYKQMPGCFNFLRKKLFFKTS
Description: SDS sample buffer was then added to each sample, boiled and subjected to SDS-PAGE analysis followed by autoradiography. In FIG. 2A procaspase-9 was in vitro translated in the presence of ^35S-methionine. Following translation procaspase-9 was desalted by gel filtration through a biospin column (BioRad) to remove unincorporated methionine and free nucleotides. Desalted procaspase-9 was then incubated with 200 ng Ni^2+-affinity purified bacterially expressed recombinant Apaf-530 (WT or K149R mutant) in the presence or absence of cytochrome c or dATP or both for 2 h at 30° C. A mock sample containing Ni^2+-affinity purified material from bacteria transformed with an empty vector was used as a negative control. Following incubation the products were analyzed by SDS-PAGE and autoradiography. In FIG. 2B^35S-labeled procaspase-9 (as described above) was incubated with bacterial lysates containing truncated Apaf-1 variants as indicated and then analyzed as above (2B upper panel). The bacterial lysates were analyzed by SDS-PAGE and immunoblotted with an Apaf-1 antibody which recognizes the N-terminus of Apaf-1 (lanes 2-6) and an anti T7-tag antibody (lanes 7-8) to confirm expression and equivalent concentration of the different Apaf-1 variants (2B lowerpanel). The molecular mass markers are indicated to the right of the lower panel.
^35S-labeled caspases were obtained by in vitro translation in the presence of ^35S-methionine using a coupled transcription/translation system in rabbit reticulocyte lysate using TNT Kit (Promega) according to the manufacturer's recommendations.
To determine the role of the WD-40 repeat in the mechanism of Apaf-1-induced processing of procaspase-9, truncated Apaf-1 (Apaf-530) lacking its WD-40 repeats (FIG. 1) was expressed and purified. To reconstitute a recombinant caspase-9 activation system, the truncated Apaf-530 was incubated with in vitro translated recombinant procaspase-9 in the presence or absence of cytochrome c and dATP. […] It was previously shown that mutation of CED-4 K165R which is required for nucleotide binding destroys its activity (Chinnaiyan et al., Nature 388:728-729, 1997; Jarnes et al., Curr. Biol. 7:246-252, 1997; Seshagiri and Miller, Curr. Biol. 7:455-460, 1997). […] Therefore, either binding of Apaf-1 to cytochrome c and dATP or deletion of the repeats could induce a conformational change enabling Apaf-1 to bind and process procaspase-9.
In FIG. 3, ^35S-labeled WT or mutant D330A, D315A or C287A mutants of procaspase-9 or prodomainless procaspase-9 (Δpro, residues 134-416) were incubated with buffer (lanes 1, 4, 7, 10, 13), purified Apaf-530 (lanes 2, 5, 8, 11, 14) or mock purified material (lanes, 3, 6, 9, 12, 15) and then analyzed by SDS-PAGE and autoradiography.

T1 sequence (Q07817 whole entry): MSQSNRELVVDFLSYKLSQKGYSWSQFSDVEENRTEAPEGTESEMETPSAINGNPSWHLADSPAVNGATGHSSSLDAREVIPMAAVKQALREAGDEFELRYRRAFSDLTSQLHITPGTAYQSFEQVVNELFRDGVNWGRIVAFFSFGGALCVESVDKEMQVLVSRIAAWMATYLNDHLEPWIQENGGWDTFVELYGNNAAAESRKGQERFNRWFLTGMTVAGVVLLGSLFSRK

co-immunoprecipitation with Bcl-xL (T7-tagged Bcl-xL): capable of immunoprecipitating
B1: procaspase-9: Flag-tagged procaspase-9 C287A co-transfected with T7-tagged Bcl-xL (protein, UniProt P55211 1-416, looked up, variant C287A)
pro-form: T2 sequence (P55211 1-416) with C287A
modifications: pro-form Flag tag
notes: Flag-tagged procaspase-9 C287A co-transfected with T7-tagged Bcl-xL

less activity than Apaf-530 in promoting procaspase-9 processing (procaspase-9): ~90%
B2: Apaf-420: truncated Apaf-1, residues 1-420, minimal conserved sequence between Apaf-1 and CED-4 (protein, UniProt O14727 1-420, looked up, fragment)
chain: MDAKARNCLLQHREALEKDIKTSYIMDHMISDGFLTISEEEKVRNEPTQQQRAAMLIKMILKKDNDSYVSFYNALLHEGYKDLAALLHDGIPVVSSSSGKDSVSGITSYVRTVLCEGGVPQRPVVFVTRKKLVNAIQQKLSKLKGEPGWVTIHGMAGCGKSVLAAEAVRDHSLLEGCFPGGVHWVSVGKQDKSGLLMKLQNLCTRLDQDESFSQRLPLNIEEAKDRLRILMLRKHPRSLLILDDVWDSWVLKAFDSQCQILLTTRDKSVTDSVMGPKYVVPVESSLGKEKGLEILSLFVNMKKADLPEQAHSIIKECKGSPLVVSLIGALLRDFPNRWEYYLKQLQNKQFKRIRKSSSYDYEALDEAMSISVEMLREDIKDYYTDLSILQKDVKVPTKVLCILWDMETEEVEDILQEFVN

activity of the Apaf-1 variant in promoting activation of procaspase-9 (procaspase-9): further reduced its activity
B3: Apaf-350: truncated Apaf-1, residues 1-350 (protein, UniProt O14727 1-350, looked up, fragment)
chain: MDAKARNCLLQHREALEKDIKTSYIMDHMISDGFLTISEEEKVRNEPTQQQRAAMLIKMILKKDNDSYVSFYNALLHEGYKDLAALLHDGIPVVSSSSGKDSVSGITSYVRTVLCEGGVPQRPVVFVTRKKLVNAIQQKLSKLKGEPGWVTIHGMAGCGKSVLAAEAVRDHSLLEGCFPGGVHWVSVGKQDKSGLLMKLQNLCTRLDQDESFSQRLPLNIEEAKDRLRILMLRKHPRSLLILDDVWDSWVLKAFDSQCQILLTTRDKSVTDSVMGPKYVVPVESSLGKEKGLEILSLFVNMKKADLPEQAHSIIKECKGSPLVVSLIGALLRDFPNRWEYYLKQLQNKQF

activity of the Apaf-1 variant in promoting activation of procaspase-9 (procaspase-9): inactive
B4: Apaf-WD: WD-40 repeat region of Apaf-1, residues 530-1194 (protein, UniProt O14727 530-1194, looked up, fragment)
chain: RHILDEKDCAVSENFQEFLSLNGHLLGRQPFPNIVQLGLCEPETSEVYQQAKLQAKQEVDNGMLYLEWINKKNITNLSRLVVRPHTDAVYHACFSEDGQRIASCGADKTLQVFKAETGEKLLEIKAHEDEVLCCAFSTDDRFIATCSVDKKVKIWNSMTGELVHTYDEHSEQVNCCHFTNSSHHLLLATGSSDCFLKLWDLNQKECRNTMFGHTNSVNHCRFSPDDKLLASCSADGTLKLWDATSANERKSINVKQFFLNLEDPQEDMEVIVKCCSWSADGARIMVAAKNKIFLFDIHTSGLLGEIHTGHHSTIQYCDFSPQNHLAVVALSQYCVELWNTDSRSKVADCRGHLSWVHGVMFSPDGSSFLTSSDDQTIRLWETKKVCKNSAVMLKQEVDVVFQENEVMVLAVDHIRRLQLINGRTGQIDYLTEAQVSCCCLSPHLQYIAFGDENGAIEILELVNNRIFQSRFQHKKTVWHIQFTADEKTLISSSDDAEIQVWNWQLDKCIFLRGHQETVKDFRLLKNSRLLSWSFDGTVKVWNIITGNKEKDFVCHQGTVLSCDISHDATKFSSTSADKTAKIWSFDLLLPLHELRGHNGCVRCSAFSVDSTLLATGDDNGEIRIWNVSNGELLHLCAPLSEEGAATHGGWVTDLCFSPDGKMLIS
